The target of assay [1] is T1, human CEACAM6, full-length, on cells (human, UniProt P40199 35-320).
T1 sequence: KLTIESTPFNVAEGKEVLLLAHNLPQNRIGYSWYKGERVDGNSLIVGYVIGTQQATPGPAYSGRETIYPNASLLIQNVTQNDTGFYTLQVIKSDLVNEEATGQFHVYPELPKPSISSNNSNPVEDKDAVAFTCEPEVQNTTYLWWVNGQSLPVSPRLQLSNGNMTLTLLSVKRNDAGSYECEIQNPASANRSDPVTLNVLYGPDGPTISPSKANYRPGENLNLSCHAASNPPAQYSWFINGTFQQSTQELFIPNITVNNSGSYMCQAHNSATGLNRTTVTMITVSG
Briefly: cell-based or functional assay.

Assay [2] addresses T2, Human CEACAM6-Domain 1-His-I30L (I63L according to SEQ-ID NO: 179) (human).
T2 construct: the entry already carries the substitution; also called TPP-8697
T2 chain: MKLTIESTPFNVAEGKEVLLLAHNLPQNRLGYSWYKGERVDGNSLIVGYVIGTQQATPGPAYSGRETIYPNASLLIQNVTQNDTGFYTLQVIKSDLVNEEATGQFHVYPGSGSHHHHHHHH
Briefly: ELISA, domain 1 protein coated. How it is done: (§1) The proteins were expressed in E. coli, refolded and purified as described in Example 1. Comparative binding activity to domain 1 wild-type protein and the two single mutations was determined by ELISA method. 1.5 ug/ml protein solutions in PBS were coated overnight to 384 Nunc MaxiSorp plates (Sigma, P6491). Plates were washed with PBS/T and blocked with Smart block (CANDOR Bioscience GmbH, 113125). […] After washing with PBS/T, bound antibodies were detected with Anti Human IgG Fc POD (Sigma, A0170) and 10 μM Amplex Red solution (Thermo, A12222). Positive binding signals were detected via Fluorescence (Ex. 535 nm/Em. 590 nm).

For assay [3], the target named is T3, Human CEACAM6-Domain 1-His-I30F (I63F according to SEQ-ID NO: 179) (human).
T3 construct: the entry already carries the substitution; also called TPP-8698
T3 chain: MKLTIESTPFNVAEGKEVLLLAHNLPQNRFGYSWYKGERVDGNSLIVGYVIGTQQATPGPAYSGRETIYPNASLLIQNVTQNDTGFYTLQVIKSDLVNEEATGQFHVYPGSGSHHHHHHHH
Briefly: ELISA, domain 1 protein coated. The procedure:
as §1
A general note: In an ELISA, binding on a coated surface is turned into a signal by an enzyme label.

Assay [4] has as its target T1, human CEACAM6, full-length, on cells. Briefly: FACS, KS cells (endogenous CEACAM6).
Assay [5] has the same target. Briefly: FACS, T84 cells (endogenous CEACAM6). The procedure:
(§2) For FACS experiments HeLa wild type cells were cultured in RPMI-1640, 10% FCS, while CEACAM-receptor transfected HeLa cells received in addition 0.5% Gentamycin (stock 10 mg/ml, Fa. PAA) and 200 μg/ml Hygromycin B (stock 50 mg/ml, Invitrogen). Cells were washed 3 times with PBS w/o Ca²⁺/Mg²⁺ and were detached from the culture plate non-enzymatically with EDTA dissociation buffer (Gibco). Cells were washed in cold FACS buffer (PBS w/o Ca²⁺/Mg²⁺ and heat-inactivated 3% FCS) and were counted using a countess machine (Invitrogen). 10⁵ cells per well were plated and incubated with the respective primary antibody (5 μg/ml) for 1 h at 4° C. on a plate shaker. […] After 2 times washing the cells were resuspended in 100 μl FACS buffer and were analysed on a FACS Canto II machine (Beckton Dickinson) or a FACS Array (Beckton Dickinson).
(§3) For EC₅₀ analysis, the primary antibodies were used at increasing concentrations in a range from 0.1 nM to 100 nM. Half maximal binding values (EC₅₀) were determined by plotting the median fluorescence intensity signal against the concentration (logarithmic scale). Curve fitting of data was performed using the Graph Pad prism analysis software.
(§4) Anti-CEACAM6 antibodies were also tested for their binding to different cancer cell lines that endogenously express CEACAM6 by FACS analysis. […]
For orientation: Flow cytometry measures light scatter and fluorescence of single cells or particles in a stream.

For assay [6] the target is unchanged. Briefly: FACS, SNU-C1 cells (endogenous CEACAM6). The procedure:
as §2, §3, §4

Assay [7] has the same target. Briefly: FACS, NCI-H1993 cells (endogenous CEACAM6). The procedure:
as §2, §3, §4

Assay [8] has the same target. Briefly: FACS, PaTu-8902 cells (endogenous CEACAM6). How it is done:
as §2, §3, §4

Values joined by “and” are separate entries in the source; they are usually repeats but may differ in a detail not shown here. Equal entries are not always repeated.

What is called EC50 is the concentration at which the effect is half-maximal. Read a low EC50 as a more potent agent.

B1: TPP-3310 (antibody, human IgG2, kappa)
heavy: QVTLRESGPALVKPTQTLTLTCTFSGFSLSTYGIGVGWIRQPPGKALEWLAHIWWNDNKYYSTSLKTRLTISKDTSKNQVVLTMTNMDPVDTATYYCARISLPYFDYWGQGTTLTVSSASTKGPSVFPLAPCSRSTSESTAALGCLVKDYFPEPVTVSWNSGALTSGVHTFPAVLQSSGLYSLSSVVTVPSSNFGTQTYTCNVDHKPSNTKVDKTVERKCCVECPPCPAPPVAGPSVFLFPPKPKDTLMISRTPEVTCVVVDVSHEDPEVQFNWYVDGVEVHNAKTKPREEQFNSTFRVVSVLTVVHQDWLNGKEYKCKVSNKGLPAPIEKTISKTKGQPREPQVYTLPPSREEMTKNQVSLTCLVKGFYPSDIAVEWESNGQPENNYKTTPPMLDSDGSFFLYSKLTVDKSRWQQGNVFSCSVMHEALHNHYTQKSLSLSPG
light: DIQLTQSPSFLSASVGDRVTITCKASQNVGTAVAWYQQKPGKAPKLLIYSASNRYTGVPSRFSGSGSGTEFTLTISSLQPEDFATYYCQQYSSYPLTFGGGTKVEIKRTVAAPSVFIFPPSDEQLKSGTASVVCLLNNFYPREAKVQWKVDNALQSGNSQESVTEQDSKDSTYSLSSTLTLSKADYEKHKVYACEVTHQGLSSPVTKSFNRGEC
notes: humanized from TPP-2971, human IgG2; also called TPP-2971HU1-hIgG2Kappa
As to B1, in assay [1], the “IC50 of the dose dependent effect on TIL mediated killing of HCC2935 cells (xCELLigence)” value is 0.62 µg/mL and 0.21 µg/mL. The binding result in assay [2] is “binds”; in assay [3], “no binding”. For the same molecule, the EC50 in assay [4] is 0.8 nM; in assay [5] it was 0.3 nM; in assay [6] it was 0.5 nM; in assay [7], 0.8 to 1.6 nM; in assay [8], 0.15 nM.

These data come from US20200181261A1 (Bayer, published 2020).
